Reference: publication PMC9045712 (Science Advances, 2022)

Molecular target: recombinant MCM2 (minichromosome maintenance protein 2), from 6x His-FLAG-TEV-MCM2 (mouse, UniProt P97310 1-904)
Assay: co-IP

Chain of recombinant MCM2 (minichromosome maintenance protein 2), from 6x His-FLAG-TEV-MCM2 (P97310 whole entry): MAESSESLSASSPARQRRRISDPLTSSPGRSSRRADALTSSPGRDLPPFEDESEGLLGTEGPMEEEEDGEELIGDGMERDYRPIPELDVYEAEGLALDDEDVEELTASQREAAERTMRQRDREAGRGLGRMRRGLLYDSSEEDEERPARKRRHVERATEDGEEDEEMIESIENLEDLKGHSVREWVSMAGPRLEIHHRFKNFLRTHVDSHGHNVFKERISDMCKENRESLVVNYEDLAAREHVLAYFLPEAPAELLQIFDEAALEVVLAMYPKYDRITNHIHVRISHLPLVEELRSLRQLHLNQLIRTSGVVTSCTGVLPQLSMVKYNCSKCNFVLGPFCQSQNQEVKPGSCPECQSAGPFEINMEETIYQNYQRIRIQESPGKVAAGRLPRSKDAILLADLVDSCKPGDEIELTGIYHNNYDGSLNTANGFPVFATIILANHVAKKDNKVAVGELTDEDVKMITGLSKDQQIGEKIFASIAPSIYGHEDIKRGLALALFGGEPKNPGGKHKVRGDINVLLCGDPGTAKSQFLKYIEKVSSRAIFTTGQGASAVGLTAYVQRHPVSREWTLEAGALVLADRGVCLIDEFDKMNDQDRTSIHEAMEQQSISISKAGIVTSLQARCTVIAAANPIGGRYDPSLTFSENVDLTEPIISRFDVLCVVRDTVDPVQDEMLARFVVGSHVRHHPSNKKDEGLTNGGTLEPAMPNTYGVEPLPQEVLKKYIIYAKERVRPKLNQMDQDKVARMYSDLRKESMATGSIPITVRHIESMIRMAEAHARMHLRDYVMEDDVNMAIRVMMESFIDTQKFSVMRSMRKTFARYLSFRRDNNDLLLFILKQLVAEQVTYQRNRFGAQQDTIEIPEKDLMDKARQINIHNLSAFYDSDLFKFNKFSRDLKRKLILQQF

B1: recombinant NPM1 (nucleophosmin), from 6x His-FLAG-TEV-NPM1 (natural protein)
chain: MEDSMDMDMSPLRPQNYLFGCELKADKDYHFKVDNDENEHQLSLRTVSLGAGAKDELHIVEAEAMNYEGSPIKVTLATLKMSVQPTVSLGGFEITPPVVLRLKCGSGPVHISGQHLVAVEEDAESEDEDEEDVKLLGMSGKRSAPGGGNKVPQKKVKLDEDDEDDDEDDEDDEDDDDDDFDEEETEEKVPVKKSVRDTPAKNAQKSNQNGKDLKPSTPRSKGQESFKKQEKTPKTPKGPSSVEDIKAKMQASIEKGGSLPKVEAKFINYVKNCFRMTDQEAIQDLWQWRKSL
binding result: binds
